In the test the target is BBPLo, bilin-binding protein from Lonomia obliqua (a variant of lopap) (Lonomia obliqua). As to the kind of experiment: SEC; analytical gel filtration of recombinant, refolded BBPLo on Superdex 75, calibrated with standards (myoglobin, NP2, IPP, BSA); monomers to dimer.

As a reminder, the stoichiometry N is a count of units in the complex or per binding partner. For the substance “BBPLo, bilin-binding protein from Lonomia obliqua (a variant of lopap) (natural protein)”, the stoichiometry N stood at 2.

For the origin of these results see publication PMC4074040.
